According to patent publication US20220089736A1:

How the values were obtained:
[1] = target: CD28 (Cluster of Differentiation 28) (human) (UniProt P10747); experiment: flow cytometry, binding to H929 cells (carry CD28 and BCMA; binding largely dependent upon CD28 arm)
[2] = target: CD28 (Cluster of Differentiation 28) (human) (UniProt P10747); experiment: flow cytometry, binding to human pan T cells; antibody without Vβ17 arm

EC50 [1] [µg/mL]	EC50 [2] [µg/mL]	Binder
0.14	0.15	VB28B9 (protein, part only; not given: scFvs, linkers, constant regions, not shown: another chain or arm of the molecule; a dimerising Fc or GST; small tags and cut ends) VH: QVQLQQWGAGLLKPSETLSLTCAVYGGSFSGYYWNWIRQPPGKGLQWIGEINHSGTTNYNPSLKSRVTISVDTSKNQFSLKLSSLTAADTAVYYCARGEAVALYWGQGTLVTVSS VL: EIVMTQSPATLSVSPGERATLSCRASQSVNSNLAWYQQKPGQAPRLLIYGASARATGIPARFSGSGSGTEFTLTISSLQSEDFAVYYCQQYYNWPLTFGGGTKVEIK
0.1	0.06	VB28B7 (protein, part only; not given: scFvs, linkers, constant regions, not shown: another chain or arm of the molecule; a dimerising Fc or GST; small tags and cut ends) VH: QVQLQQPGSELVRPGASVKLSCKASGYTFTSYWMHWVKQRHGQGLEWIGNIYPGSGRTNYDEKFKSKGTLTVDTSSRTAYMHLSSLTSEDSAVYYCTREHYGSNSHPMDYWGQGTSVTVSS VL: DIQMTQSPASLSASVGETVTITCGASENIYGSLNWYQRKQGKSPQLLIYGATNLADGMSSRFSGSGSGRQFSLKISSLHPDDVATYYCQNLLSTPYTFGGGTKLELK
